From article PMC9482650, “Quantitative fragmentomics allow affinity mapping of interactomes” (Nature Communications, 2022)

T1: CNKSR1, Q969H4
T1 sequence (Q969H4 191-295, limits assumed, looked up): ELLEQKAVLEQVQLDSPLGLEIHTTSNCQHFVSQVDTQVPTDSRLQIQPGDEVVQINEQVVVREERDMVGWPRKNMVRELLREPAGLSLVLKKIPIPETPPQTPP

T2: MPDZ_13, O75970
T2 sequence (O75970 1982-2070, limits assumed, looked up): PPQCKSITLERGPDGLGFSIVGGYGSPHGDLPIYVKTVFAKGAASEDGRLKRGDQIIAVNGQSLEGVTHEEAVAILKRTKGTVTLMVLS

T3: MPDZ_2, O75970
T3 sequence (O75970 252-347, limits assumed, looked up): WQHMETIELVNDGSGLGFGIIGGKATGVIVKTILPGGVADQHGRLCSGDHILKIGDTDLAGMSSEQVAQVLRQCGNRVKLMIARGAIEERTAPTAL

T4: MPDZ_7, O75970
T4 sequence (O75970 1146-1253, limits assumed, looked up): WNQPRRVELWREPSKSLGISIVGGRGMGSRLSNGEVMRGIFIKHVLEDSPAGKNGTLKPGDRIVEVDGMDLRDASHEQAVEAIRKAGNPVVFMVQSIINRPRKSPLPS

T5: NHERF1_2, O14745
T5 sequence (O14745 149-244, limits assumed, looked up): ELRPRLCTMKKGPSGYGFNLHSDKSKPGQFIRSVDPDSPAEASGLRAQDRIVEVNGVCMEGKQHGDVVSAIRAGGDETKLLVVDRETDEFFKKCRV

T6: PARD6G, Q9BYG4
T6 sequence (Q9BYG4 153-261, limits assumed, looked up): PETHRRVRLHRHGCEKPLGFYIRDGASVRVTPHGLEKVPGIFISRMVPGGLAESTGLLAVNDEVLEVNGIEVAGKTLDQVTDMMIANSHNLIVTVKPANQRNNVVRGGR

T7: PDLIM3, Q53GG5
T7 sequence (Q53GG5 1-94, limits assumed, looked up): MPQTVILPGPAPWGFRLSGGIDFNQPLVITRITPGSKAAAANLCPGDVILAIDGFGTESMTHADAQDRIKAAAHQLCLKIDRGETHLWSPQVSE

T8: PTPN13_5, Q12923
T8 sequence (Q12923 1877-1975, limits assumed, looked up): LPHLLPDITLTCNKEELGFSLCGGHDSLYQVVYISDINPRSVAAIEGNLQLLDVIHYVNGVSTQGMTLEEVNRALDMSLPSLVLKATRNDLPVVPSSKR

T9: SHANK3, Q9BYB0
T9 sequence (Q9BYB0 641-750, limits assumed, looked up): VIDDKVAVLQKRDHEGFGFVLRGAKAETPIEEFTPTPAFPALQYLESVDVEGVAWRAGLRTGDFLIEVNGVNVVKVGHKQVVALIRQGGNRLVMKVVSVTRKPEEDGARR


Experiments:
Assay in all cases: holdup assay
Design in all cases: key: below the threshold = too weak to quantify, mostly under pKd 3.1 to 4
Conditions in all cases: plain residues with an end cap or a label only (N-terminal biotin on a linker: ttds)
CARD14, Q9BXL6 = molecular target: CARD14, Q9BXL6
CARD14, Q9BXL6, sequence (Q9BXL6 558-663): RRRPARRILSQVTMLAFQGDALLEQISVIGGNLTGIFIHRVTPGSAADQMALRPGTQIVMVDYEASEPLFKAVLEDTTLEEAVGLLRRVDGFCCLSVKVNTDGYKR

CNKSR1, Q969H4 = molecular target: T1, CNKSR1, Q969H4
CNKSR3, Q6P9H4 = molecular target: CNKSR3, Q6P9H4
CNKSR3, Q6P9H4, sequence (Q6P9H4 203-303): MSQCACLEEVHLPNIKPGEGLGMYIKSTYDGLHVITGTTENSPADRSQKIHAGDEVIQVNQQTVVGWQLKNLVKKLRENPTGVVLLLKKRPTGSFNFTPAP

GRIP2_2, Q9C0E4 = molecular target: GRIP2_2, Q9C0E4
GRIP2_2, Q9C0E4, sequence (Q9C0E4 137-245): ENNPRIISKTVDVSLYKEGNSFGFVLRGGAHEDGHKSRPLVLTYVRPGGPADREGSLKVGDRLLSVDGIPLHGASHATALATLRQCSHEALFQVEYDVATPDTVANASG

LIMK1, P53667 = molecular target: LIMK1, P53667
LIMK1, P53667, sequence (P53667 155-268): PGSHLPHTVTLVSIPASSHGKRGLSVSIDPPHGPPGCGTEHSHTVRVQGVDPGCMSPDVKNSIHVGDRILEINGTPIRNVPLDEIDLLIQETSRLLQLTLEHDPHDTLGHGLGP

LMO7, Q8WWI1 = molecular target: LMO7, Q8WWI1
LMO7, Q8WWI1, sequence (Q8WWI1 1037-1138): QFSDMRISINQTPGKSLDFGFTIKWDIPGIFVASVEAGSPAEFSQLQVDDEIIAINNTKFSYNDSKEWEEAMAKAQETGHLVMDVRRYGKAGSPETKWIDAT

MAGI3_3, Q5TCQ9 = molecular target: MAGI3_3, Q5TCQ9
MAGI3_3, Q5TCQ9, sequence (Q5TCQ9 572-655): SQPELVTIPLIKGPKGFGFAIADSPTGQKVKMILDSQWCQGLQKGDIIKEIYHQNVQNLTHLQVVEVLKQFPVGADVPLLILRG

MAST3, O60307 = molecular target: MAST3, O60307
MAST3, O60307, sequence (O60307 945-1048): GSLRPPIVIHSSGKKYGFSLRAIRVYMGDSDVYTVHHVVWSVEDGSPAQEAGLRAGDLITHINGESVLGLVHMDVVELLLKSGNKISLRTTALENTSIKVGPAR

MPDZ_13, O75970 = molecular target: T2, MPDZ_13, O75970
MPDZ_2, O75970 = molecular target: T3, MPDZ_2, O75970
MPDZ_7, O75970 = molecular target: T4, MPDZ_7, O75970
NHERF1_2, O14745 = molecular target: T5, NHERF1_2, O14745
NHERF2_1, Q15599 = molecular target: NHERF2_1, Q15599
NHERF2_1, Q15599, sequence (Q15599 9-91): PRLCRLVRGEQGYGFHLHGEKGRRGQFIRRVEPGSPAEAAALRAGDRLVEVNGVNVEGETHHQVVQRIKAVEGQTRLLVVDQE

O60759 = molecular target: O60759
O75970 = molecular target: O75970
PARD6G, Q9BYG4 = molecular target: T6, PARD6G, Q9BYG4
PDLIM3, Q53GG5 = molecular target: T7, PDLIM3, Q53GG5
PREX1_1, Q8TCU6 = molecular target: PREX1_1, Q8TCU6
PREX1_1, Q8TCU6, sequence (Q8TCU6 608-718): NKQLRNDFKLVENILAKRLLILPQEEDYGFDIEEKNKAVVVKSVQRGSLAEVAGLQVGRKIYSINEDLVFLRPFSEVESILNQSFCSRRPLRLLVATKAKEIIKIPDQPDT

PTPN13_5, Q12923 = molecular target: T8, PTPN13_5, Q12923
Q13368 = molecular target: Q13368
Q6ZWJ1 = molecular target: Q6ZWJ1
Q92614 = molecular target: Q92614
Q96HC4 = molecular target: Q96HC4
Q9C0E4 = molecular target: Q9C0E4
Q9NPB6 = molecular target: Q9NPB6
Q9UDY2 = molecular target: Q9UDY2
Q9ULJ8 = molecular target: Q9ULJ8
Q9Y3R0 = molecular target: Q9Y3R0
RIMS1, Q86UR5 = molecular target: RIMS1, Q86UR5
RIMS1, Q86UR5, sequence (Q86UR5 584-692): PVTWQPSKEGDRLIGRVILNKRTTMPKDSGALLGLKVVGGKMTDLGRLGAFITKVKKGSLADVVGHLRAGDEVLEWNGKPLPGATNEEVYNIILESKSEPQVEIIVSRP

SHANK3, Q9BYB0 = molecular target: T9, SHANK3, Q9BYB0

Binder | pKd (CARD14, Q9BXL6) | pKd (CNKSR1, Q969H4) | pKd (CNKSR3, Q6P9H4) | pKd (GRIP2_2, Q9C0E4) | pKd (LIMK1, P53667) | pKd (LMO7, Q8WWI1) | pKd (MAGI3_3, Q5TCQ9) | pKd (MAST3, O60307) | pKd (MPDZ_13, O75970) | pKd (MPDZ_2, O75970) | pKd (MPDZ_7, O75970) | pKd (NHERF1_2, O14745) | pKd (NHERF2_1, Q15599) | pKd (O60759) | pKd (O75970) | pKd (PARD6G, Q9BYG4) | pKd (PDLIM3, Q53GG5) | pKd (PREX1_1, Q8TCU6) | pKd (PTPN13_5, Q12923) | pKd (Q13368) | further results
DPLTPSRSQL [DGKK, Q5KSL6] | below the threshold | 4.3 | below the threshold | below the threshold | 4.32 | below the threshold | below the threshold | below the threshold | below the threshold | below the threshold | below the threshold | below the threshold | below the threshold | below the threshold | below the threshold | below the threshold | below the threshold | below the threshold | below the threshold | below the threshold | pKd (Q6ZWJ1): below the threshold; pKd (Q92614): below the threshold; pKd (Q96HC4): below the threshold; pKd (Q9C0E4): below the threshold; pKd (Q9NPB6): below the threshold; pKd (Q9UDY2): below the threshold; pKd (Q9ULJ8): below the threshold; pKd (Q9Y3R0): below the threshold; pKd (RIMS1, Q86UR5): below the threshold; pKd (SHANK3, Q9BYB0): below the threshold
RTRQRNETQV [HPV51-E6, P26554] | 4.34 | 4.44 | below the threshold | below the threshold | below the threshold | below the threshold | below the threshold | below the threshold | below the threshold | below the threshold | below the threshold | below the threshold | below the threshold | below the threshold | below the threshold | below the threshold | below the threshold | below the threshold | below the threshold | below the threshold | pKd (Q6ZWJ1): below the threshold; pKd (Q92614): below the threshold; pKd (Q96HC4): below the threshold; pKd (Q9C0E4): below the threshold; pKd (Q9NPB6): below the threshold; pKd (Q9UDY2): below the threshold; pKd (Q9ULJ8): below the threshold; pKd (Q9Y3R0): below the threshold; pKd (RIMS1, Q86UR5): below the threshold; pKd (SHANK3, Q9BYB0): below the threshold
MERLRVETDV [ARHGEF16, Q5VV41] | below the threshold | 4.16 | below the threshold | below the threshold | below the threshold | below the threshold | below the threshold | below the threshold | below the threshold | below the threshold | below the threshold | below the threshold | below the threshold | below the threshold | below the threshold | below the threshold | below the threshold | below the threshold | below the threshold | below the threshold | pKd (Q6ZWJ1): below the threshold; pKd (Q92614): below the threshold; pKd (Q96HC4): below the threshold; pKd (Q9C0E4): below the threshold; pKd (Q9NPB6): below the threshold; pKd (Q9UDY2): below the threshold; pKd (Q9ULJ8): below the threshold; pKd (Q9Y3R0): below the threshold; pKd (RIMS1, Q86UR5): below the threshold; pKd (SHANK3, Q9BYB0): below the threshold
NYWPGKETQL [SLCO1C1, Q9NYB5] | below the threshold | below the threshold | below the threshold | below the threshold | below the threshold | below the threshold | below the threshold | below the threshold | below the threshold | below the threshold | 5.2 | below the threshold | below the threshold | below the threshold | below the threshold | below the threshold | below the threshold | below the threshold | below the threshold | below the threshold | pKd (Q6ZWJ1): below the threshold; pKd (Q92614): below the threshold; pKd (Q96HC4): below the threshold; pKd (Q9C0E4): below the threshold; pKd (Q9NPB6): below the threshold; pKd (Q9UDY2): below the threshold; pKd (Q9ULJ8): below the threshold; pKd (Q9Y3R0): below the threshold; pKd (RIMS1, Q86UR5): below the threshold; pKd (SHANK3, Q9BYB0): below the threshold
